Experimental data as given in the supplement of paper PMC7125110.
± gives the standard error. For some of these results: This sample holds only a part of the variants without activity.

B1: glmS ribozyme (parent)
chain: AUAAAAGCGCCAGAACUACAGAAAUGUAGUUGACGAGGAGGAGGUUUAUCGAAUUUUCGGCGGAUGCCUCCAAA

Assays:
Conditions in all cases: with glucosamine-6-phosphate
[1] = variants of: B1; experiment: kcat; higher = faster cleavage; RNA array
Summary of the method: (§1)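 Glucosamine-6-phosphate in HEPES/KCl/Mg(OAc)2 buffer, at 40 μM to 10 mM, was flowed over barcoded ribozyme variants transcribed in situ by E. coli RNA polymerase on sequenced MiSeq chips. Tracking was through a hybridised Cy3 probe at 37 °C. kobs, kcat and KM came from exponential decay fits and weighted Michaelis–Menten fits of normalised per-tile medians.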

[2] = variants of: B1; experiment: KM; higher = weaker cofactor use; RNA array
Summary of the method: as §1

[3] = variants of: B1; experiment: self-cleavage kobs at 2500 uM GlcN6P; higher = faster cleavage; RNA array
Summary of the method: as §1

[4] = variants of: B1; experiment: self-cleavage kobs at 10000 uM GlcN6P; higher = faster cleavage; RNA array
Summary of the method: as §1

[5] = variants of: B1; experiment: self-cleavage kobs at 40 uM GlcN6P; higher = faster cleavage; RNA array
Summary of the method: as §1

[6] = variants of: B1; experiment: self-cleavage kobs at 160 uM GlcN6P; higher = faster cleavage; RNA array
Summary of the method: as §1

[7] = variants of: B1; experiment: self-cleavage kobs at 640 uM GlcN6P; higher = faster cleavage; RNA array
Summary of the method: as §1

Variant	kcat [1]	KM [2]	self-cleavage kobs at 2500 uM GlcN6P [3]	self-cleavage kobs at 10000 uM GlcN6P [4]	self-cleavage kobs at 40 uM GlcN6P [5]	self-cleavage kobs at 160 uM GlcN6P [6]	self-cleavage kobs at 640 uM GlcN6P [7]
U31A G44U	0.00017 ± 9.6e-06 s⁻¹	3960 ± 530 µM	6.38e-05 ± 1.6e-05 s⁻¹	0.000122 ± 1.8e-05 s⁻¹	–	–	–
U31C U47A	0.00379 ± 0.00061 s⁻¹	1800 ± 460 µM	0.00178 ± 0.00031 s⁻¹	0.00367 ± 0.00049 s⁻¹	8.24e-05 ± 1.4e-05 s⁻¹	0.000354 ± 7.7e-05 s⁻¹	0.00107 ± 0.00022 s⁻¹
U30G A42U C67G	0.00016 ± 2.9e-05 s⁻¹	–	0.000107 ± 2.9e-05 s⁻¹	0.000167 ± 4.5e-05 s⁻¹	–	–	8.82e-05 ± 2.3e-05 s⁻¹
U30C C67G C68A	1.14e-05 ± 4e-06 s⁻¹	–	–	< 1e-05 s⁻¹	< 1e-05 s⁻¹	–	–
U31C U65C	5e-05 ± 2.5e-06 s⁻¹	238 ± 120 µM	4.75e-05 ± 9.5e-06 s⁻¹	4.78e-05 ± 6.9e-06 s⁻¹	–	–	3.88e-05 ± 1.4e-05 s⁻¹
U30A A33U	5.67e-05 ± 3.2e-06 s⁻¹	4010 ± 660 µM	–	4.04e-05 ± 8.7e-06 s⁻¹	< 1e-05 s⁻¹	< 1e-05 s⁻¹	–
U30G C58G A64C C67G C71G	4.36e-05 ± 1.6e-05 s⁻¹	–	–	–	–	5.89e-05 ± 2e-05 s⁻¹	–
U31C G37U	< 1e-05 s⁻¹	–	–	–	< 1e-05 s⁻¹	–	< 1e-05 s⁻¹
U30G A53U	0.00761 ± 0.0027 s⁻¹	–	0.00357 ± 0.0007 s⁻¹	0.00788 ± 0.0011 s⁻¹	0.000261 ± 3.2e-05 s⁻¹	0.000465 ± 0.00011 s⁻¹	0.0019 ± 0.00032 s⁻¹
U31G A53U	0.019 ± 0.0084 s⁻¹	–	0.00587 ± 0.002 s⁻¹	0.0128 ± 0.0024 s⁻¹	0.000188 ± 3e-05 s⁻¹	–	0.00281 ± 0.00087 s⁻¹
U30A C58G G59A C70G	2.1e-05 ± 2.6e-06 s⁻¹	–	–	–	–	–	–
U30C U54A	0.000514 ± 7.7e-05 s⁻¹	3790 ± 1100 µM	0.000182 ± 5.3e-05 s⁻¹	0.000378 ± 5.6e-05 s⁻¹	–	–	8.25e-05 ± 2.1e-05 s⁻¹
U31G G35U C67G	< 1e-05 s⁻¹	–	–	–	–	–	–
U31C A39G	0.018 ± 0.0061 s⁻¹	4940 ± 2200 µM	0.00524 ± 0.0013 s⁻¹	0.0125 ± 0.0018 s⁻¹	0.000253 ± 4.8e-05 s⁻¹	0.000489 ± 8.5e-05 s⁻¹	0.00212 ± 0.00039 s⁻¹
U31C A39C	0.00127 ± 0.00014 s⁻¹	2620 ± 500 µM	0.00058 ± 5.1e-05 s⁻¹	0.00102 ± 6.7e-05 s⁻¹	3.17e-05 ± 7.1e-06 s⁻¹	6.64e-05 ± 9.6e-06 s⁻¹	0.000259 ± 2.4e-05 s⁻¹
U30A U65G	0.00214 ± 0.00022 s⁻¹	5250 ± 1000 µM	0.000614 ± 0.00016 s⁻¹	0.00141 ± 0.00016 s⁻¹	–	6.8e-05 ± 2.4e-05 s⁻¹	0.000275 ± 8.9e-05 s⁻¹
U30A U65C	0.000105 ± 8e-06 s⁻¹	2860 ± 590 µM	4.68e-05 ± 1.5e-05 s⁻¹	8.23e-05 ± 1.6e-05 s⁻¹	–	–	–

Variant	kcat [1]	KM [2]	self-cleavage kobs at 2500 uM GlcN6P [3]	self-cleavage kobs at 10000 uM GlcN6P [4]	self-cleavage kobs at 40 uM GlcN6P [5]	self-cleavage kobs at 160 uM GlcN6P [6]	self-cleavage kobs at 640 uM GlcN6P [7]
U31A U57A	0.000241 ± 3.5e-06 s⁻¹	2390 ± 95 µM	0.000125 ± 2.8e-05 s⁻¹	0.000194 ± 2.7e-05 s⁻¹	–	–	4.97e-05 ± 2.1e-05 s⁻¹
G29U U54A	0.00792 ± 0.0027 s⁻¹	2360 ± 1100 µM	0.00361 ± 0.0006 s⁻¹	0.0068 ± 0.00083 s⁻¹	0.000181 ± 1.9e-05 s⁻¹	0.000284 ± 7.7e-05 s⁻¹	0.00184 ± 0.0003 s⁻¹
G29U U54C	0.00486 ± 0.0013 s⁻¹	1540 ± 590 µM	0.00249 ± 0.00049 s⁻¹	0.00596 ± 0.0013 s⁻¹	0.000157 ± 3.1e-05 s⁻¹	0.000421 ± 6.8e-05 s⁻¹	0.00146 ± 0.00023 s⁻¹
U30A U56C	0.0028 ± 0.00091 s⁻¹	–	0.000369 ± 8.1e-05 s⁻¹	0.00113 ± 0.00015 s⁻¹	–	–	0.000126 ± 2.4e-05 s⁻¹
U30A A52U	0.000132 ± 2.2e-05 s⁻¹	4380 ± 1900 µM	4.37e-05 ± 1.6e-05 s⁻¹	9.26e-05 ± 1.4e-05 s⁻¹	< 1e-05 s⁻¹	–	–
G29U U47G	0.000866 ± 0.00021 s⁻¹	1600 ± 640 µM	0.000515 ± 0.00015 s⁻¹	0.000787 ± 0.00012 s⁻¹	–	0.00011 ± 2.1e-05 s⁻¹	0.000215 ± 3.4e-05 s⁻¹
U30G G43U	1.16e-05 ± 2.3e-06 s⁻¹	–	–	–	–	< 1e-05 s⁻¹	< 1e-05 s⁻¹
U30A C58A	0.000164 ± 5e-05 s⁻¹	–	9.07e-05 ± 2.9e-05 s⁻¹	0.000114 ± 2.4e-05 s⁻¹	–	–	–
U31A	0.0242 ± 0.0089 s⁻¹	2460 ± 1100 µM	0.00997 ± 0.00043 s⁻¹	0.0286 ± 0.0012 s⁻¹	0.000428 ± 7.9e-06 s⁻¹	0.00127 ± 5.8e-05 s⁻¹	0.00431 ± 0.00015 s⁻¹
U31G	0.0277 ± 0.0077 s⁻¹	3080 ± 1000 µM	0.0126 ± 0.00057 s⁻¹	0.0227 ± 0.00081 s⁻¹	0.000403 ± 7.4e-06 s⁻¹	0.00114 ± 4.7e-05 s⁻¹	0.00394 ± 0.00013 s⁻¹
U31C	0.00939 ± 0.0013 s⁻¹	2370 ± 430 µM	0.00415 ± 0.00014 s⁻¹	0.00805 ± 0.00018 s⁻¹	0.000168 ± 2.9e-06 s⁻¹	0.000489 ± 1.7e-05 s⁻¹	0.00208 ± 7.4e-05 s⁻¹
U31C A52U	7.02e-05 ± 1.4e-05 s⁻¹	–	5.04e-05 ± 6e-06 s⁻¹	5.66e-05 ± 7.1e-06 s⁻¹	–	–	–
U31G G60A	1.46e-05 ± 6.5e-06 s⁻¹	–	–	–	–	–	–
U30C C58G C68A	5.09e-05 ± 2.1e-05 s⁻¹	–	7.09e-05 ± 1.9e-05 s⁻¹	–	–	–	9.15e-05 ± 3.9e-05 s⁻¹
U31C A52U G63U U69G	1.91e-05 ± 1.4e-06 s⁻¹	–	–	–	–	–	–
U30G G40U	0.000787 ± 9.4e-05 s⁻¹	1610 ± 350 µM	0.000615 ± 0.00014 s⁻¹	0.000668 ± 7.3e-05 s⁻¹	3.53e-05 ± 1.3e-05 s⁻¹	6.94e-05 ± 1.5e-05 s⁻¹	0.000212 ± 2.9e-05 s⁻¹
